Measurements from article PMC7978432.

Legend:
[1] = target: SARS-CoV-1 RBD-5GS-1TD0 (SARS-CoV-1 | not stated); test: SDS-PAGE
[2] = target: SARS-CoV-2 RBD-5GS-1TD0 (SARS-CoV-2 | not stated) (UniProt P0DTC2); test: SDS-PAGE
[3] = target: SARS-CoV-2 RBD-5GS-1TD0 (SARS-CoV-2 | not stated) (UniProt P0DTC2); test: SEC

Substance | stoichiometry N [1] | stoichiometry N [2] | stoichiometry N [3]
SARS-CoV-1 RBD-5GS-1TD0 | 3 | – | –
SARS-CoV-2 RBD-5GS-1TD0 (from UniProt P0DTC2 330-532) | – | 3 | 3
